Experimental data reported in FireProtDB (doi:10.1038/75151).

Conditions: Bacillus caldolyticus, pH 7, Thermal, CD, Sodium cacodylate-HCl 0.1 M, reversible: yes, whole UniProt chain shown

B1: Cold shock protein CspB wild type, P41016 (protein)
chain: MQRGKVKWFNNEKGYGFIEVEGGSDVFVHFTAIQGEGFKTLEEGQEVSFEIVQGNRGPQAANVVKL
70 °C, NaCl 2 M
  unfolding free energy: 2.2 kcal/mol
  Tm: 76.9 °C
  unfolding enthalpy (van 't Hoff): 58.6 kcal/mol
